How the values were obtained:
soy protein = experiment: Release of free amino acids (FAA) in soy protein hydrolysis; type: biochemical, soy bean
Procedure: Hydrolysis was carried out on a 10 ml scale at 50° C. for 18 hours. The initial pH was 7 with no pH readjustment during hydrolysis. Inactivation of the enzyme was carried out at 85° C. for 3 minutes in a water bath. The substrate concentration was 2% protein from soy bean meal. The substrate was heat treated in a water bath at 85° C. for 3 minutes. The enzymes used with FLAVOURZYME 1000L™ and ALCALASE 2.4L® described above were crude Sphingomonas capsulata aminopeptidase I powder (see Example 1) and the purified Sphingomonas capsulata aminopeptidase I described in Example 4.
Hyp, methioninsulphonic acid, and Trp were not included in the Table due to very fluctuating and uncertain results.

[1] = Specific activity in glycine aminopeptidase units (GAPU); type: biochemical; conditions: Gly-pNA, 50 mM Tris-HCl pH 7.5, 37° C.
Procedure: The enzymes used with FLAVOURZYME™ and ALCALASE® were crude Sphingomonas capsulata aminopeptidase I powder and purified Sphingomonas capsulata aminopeptidase I as in Example 7. Glycine aminopeptidase unit (GAPU) of both crude and purified enzyme was measured in 50 mM Tris-HCl pH 7.5 buffer at 37° C. using Gly-pNA as a substrate. Aminopeptidase I was assayed at 37° C. in 50 mM Tris-HCl (pH 7.5). Gly-pNA (Bachem Feinchemikalien AG, Bubendorf, Switzerland) was dissolved in 40% dioxane at a concentration of 2.5 mg/ml and 1.5 volume of 50 mM Tris-HCl (pH 7.5) was added to a substrate concentration of 1 mg/ml. The enzyme sample was diluted in 500 μl of the same buffer and 100 μl of the substrate solution was added and incubated at 37° C. for 5 minutes. The reaction was terminated by the addition of 300 μl of 1 M sodium acetate pH 4.0 buffer. For the blank reaction, the stop solution was added to the enzyme solution and incubated for 5 minutes at 37° C., and then the substrate solution was added. The absorbance at 410 nm was measured for both the sample and blank reactions. The enzyme activity was calculated using the molecular extinction coefficient at 410 nm for pNA as 9480 M^−1 cm^−1. One unit of GAPU was defined as the quantity of enzyme that hydrolyses 1 micromole of Gly-pNA at 37° C. per minute under the conditions described above. […]

[2] = pH optimum / pH profile with Ala-pNA; type: biochemical; conditions: room temperature
Procedure: The pH optimum for the 67 kDa aminopeptidase I was determined using the following protocol. The buffer solutions at different pH's were prepared by adding distilled water to 4.25 g of sodium acetate and 3.78 g of Tris (free base) to a final volume of 250 ml and adjusting the pH to 8.5, 8.0, 7.5, 7.0, 6.5, 5.80, 5.5, and 5.0 with 36.5-38% HCl. Aliquots of 10 ml were removed at each pH. A 20 μl volume of a 100 mg/ml solution of Ala-pNA in DMSO was added to 980 μl of each buffer solution. The pH was then determined to be 8.5, 8.0, 7.57, 7.30, 7.09, 6.68, 6.14, and 5.25 for the buffer solutions after the addition of the substrate. Another solution of substrate at a concentration of 2 mg/ml was prepared at the various pHs. The reaction was initiated by the addition of 10 μl of enzyme solution, diluted 5-fold in 10 mM Tris-HCl pH 7.5, to 200 μl of substrate at the various pHs at room temperature and monitored at 405 nm.
There was no detectable autohydrolysis of Ala-pNa in the pH range 5.25-8.5.

[3] = Substrate specificity: initial rates of hydrolysis of para-nitroanilides; type: biochemical; conditions: Gly-Phe-pNA versus Ala-Ala-pNA
[4] = Isoelectric point by activity staining method; type: physicochemical; conditions: freshly prepared enzyme
Source text: The isoelectric point of the aminopeptidase is variable since the isoelectric point of the freshly prepared enzyme is estimated as 8.4 using an activity staining method, however, the isoelectric point varies from 7.4 to 8.5 during the course of purification and/or storage. The uncertainty of the isoelectric point may be due to the self digestion of the aminopeptidase from its amino terminal.

[5] = 1.5% FLAVOURZYME +67 kDa AP versus 6.0% FLAVOURZYME

B1: Sphingomonas capsulata aminopeptidase I: purified aminopeptidase of 67 kDa from Sphingomonas capsulata IFO 12533; deduced amino acid sequence SEQ ID NO:2 (protein)
chain: MRKTPQGIGLLSALSTSTLALATLILAQPALAQVQPASNSRPMAVPIAHGVPDAQDVPYPGTIGLQIDATDLATGAFRVVETVPVAADAKELILQLPAWLPGEHGNRGPVAELAGITFEAKGQKLAWTRDPVEVNAFHIPLPAGTSEVVARFIHTSPLRDSEGRITVTREMLNVQWEKMSLYPAGHYVRQIKVRPTVSFPQGWTVFTALDGKTQSGAGNTVTWAETDYETLVDSPIFAGLYAARHDLGHNVYFDLVADKPELLAIKPENLAAYRNLADEAVGAFGARHFDHYDFLLALTDRMGSIGLEHHRSSENQQEPKSLTDWAAYDWDRNVIAHEFSHSWDGKYRRSAKLWTPDYRQPMQDNLLWVYEGQTQFWGLVLAARSGVQSKDVVLGSLANYAGTFTQTAGRDWRSVEDTTMDPIFAARKPKPYSSLTRNEDYYTEGALVWLEADQIIRDGTGGKKGLDDFAKAFFGVRDGDWGVLTYEFDDVVKTLNGVYPYDWATFLKTRLQTPGQPVPLGGIERGGYKLEFKDEPNPYDKARMADAKVLSLFNSLGVTLDKDGKVTASRWDGPAFKAGLVSGMQVMAVNGDAYDADKLKGAITNAKTGNPGAGRPIELLVKRDDRFVTLPITYADGLRWPWLVRTAPGTAPTGLDKLLAPHASKLPVGKAAK
% Relative increase in FAA: Ala (soy protein; 1.5% FLAVOURZYME +67 kDa AP): 130.3%
% Relative increase in FAA: Arg (soy protein; 1.5% FLAVOURZYME +67 kDa AP): 37.4%
% Relative increase in FAA: Asn (soy protein; 1.5% FLAVOURZYME +67 kDa AP): 32.3%
% Relative increase in FAA: Asp (soy protein; 1.5% FLAVOURZYME +67 kDa AP): 164.5%
% Relative increase in FAA: Cys (soy protein; 1.5% FLAVOURZYME +67 kDa AP): 12.6%
% Relative increase in FAA: Gln (soy protein; 1.5% FLAVOURZYME +67 kDa AP): 138.9%
% Relative increase in FAA: Glu (soy protein; 1.5% FLAVOURZYME +67 kDa AP): 145.9%
% Relative increase in FAA: Gly (soy protein; 1.5% FLAVOURZYME +67 kDa AP): 305.7%
% Relative increase in FAA: His (soy protein; 1.5% FLAVOURZYME +67 kDa AP): 30.3%
% Relative increase in FAA: Ile (soy protein; 1.5% FLAVOURZYME +67 kDa AP): 48.7%
% Relative increase in FAA: Leu (soy protein; 1.5% FLAVOURZYME +67 kDa AP): 35.2%
% Relative increase in FAA: Lys (soy protein; 1.5% FLAVOURZYME +67 kDa AP): 62.4%
% Relative increase in FAA: Met (soy protein; 1.5% FLAVOURZYME +67 kDa AP): −20.0%
% Relative increase in FAA: Phe (soy protein; 1.5% FLAVOURZYME +67 kDa AP): 41.8%
% Relative increase in FAA: Pro (soy protein; 1.5% FLAVOURZYME +67 kDa AP): 32.4%
% Relative increase in FAA: Ser (soy protein; 1.5% FLAVOURZYME +67 kDa AP): 69.3%
% Relative increase in FAA: Thr (soy protein; 1.5% FLAVOURZYME +67 kDa AP): 34.7%
% Relative increase in FAA: Tyr (soy protein; 1.5% FLAVOURZYME +67 kDa AP): 47.6%
% Relative increase in FAA: Val (soy protein; 1.5% FLAVOURZYME +67 kDa AP): 44.0%
% Relative increase in FAA: total (soy protein; 1.5% FLAVOURZYME +67 kDa AP): 64.5%
% Relative increase in FAA: Ala (soy protein; [5]): 27.3%
% Relative increase in FAA: Arg (soy protein; [5]): −2.9%
% Relative increase in FAA: Asn (soy protein; [5]): −15.2%
% Relative increase in FAA: Asp (soy protein; [5]): 24.2%
% Relative increase in FAA: Cys (soy protein; [5]): 6.3%
% Relative increase in FAA: Gln (soy protein; [5]): 9.9%
% Relative increase in FAA: Glu (soy protein; [5]): 28.7%
% Relative increase in FAA: Gly (soy protein; [5]): 90.6%
% Relative increase in FAA: His (soy protein; [5]): −6.8%
% Relative increase in FAA: Ile (soy protein; [5]): −21.0%
% Relative increase in FAA: Leu (soy protein; [5]): −9.1%
% Relative increase in FAA: Lys (soy protein; [5]): −1.4%
% Relative increase in FAA: Met (soy protein; [5]): −46.7%
% Relative increase in FAA: Phe (soy protein; [5]): −4.5%
% Relative increase in FAA: Pro (soy protein; [5]): −39.7%
% Relative increase in FAA: Ser (soy protein; [5]): 12.5%
% Relative increase in FAA: Thr (soy protein; [5]): −18.3%
% Relative increase in FAA: Tyr (soy protein; [5]): −6.9%
% Relative increase in FAA: Val (soy protein; [5]): −17.7%
% Relative increase in FAA: total (soy protein; [5]): 0.0%
% Relative increase in FAA: Ala (soy protein; 6.0% FLAVOURZYME +67 kDa AP): 36.5%
% Relative increase in FAA: Arg (soy protein; 6.0% FLAVOURZYME +67 kDa AP): −31.4%
% Relative increase in FAA: Asn (soy protein; 6.0% FLAVOURZYME +67 kDa AP): 7.6%
% Relative increase in FAA: Asp (soy protein; 6.0% FLAVOURZYME +67 kDa AP): 24.8%
% Relative increase in FAA: Cys (soy protein; 6.0% FLAVOURZYME +67 kDa AP): 9.5%
% Relative increase in FAA: Gln (soy protein; 6.0% FLAVOURZYME +67 kDa AP): 28.1%
% Relative increase in FAA: Glu (soy protein; 6.0% FLAVOURZYME +67 kDa AP): 31.3%
% Relative increase in FAA: Gly (soy protein; 6.0% FLAVOURZYME +67 kDa AP): 92.9%
% Relative increase in FAA: His (soy protein; 6.0% FLAVOURZYME +67 kDa AP): 7.5%
% Relative increase in FAA: Ile (soy protein; 6.0% FLAVOURZYME +67 kDa AP): 7.2%
% Relative increase in FAA: Leu (soy protein; 6.0% FLAVOURZYME +67 kDa AP): 5.2%
% Relative increase in FAA: Lys (soy protein; 6.0% FLAVOURZYME +67 kDa AP): 13.8%
% Relative increase in FAA: Met (soy protein; 6.0% FLAVOURZYME +67 kDa AP): 21.1%
% Relative increase in FAA: Phe (soy protein; 6.0% FLAVOURZYME +67 kDa AP): 7.2%
% Relative increase in FAA: Pro (soy protein; 6.0% FLAVOURZYME +67 kDa AP): −11.5%
% Relative increase in FAA: Ser (soy protein; 6.0% FLAVOURZYME +67 kDa AP): 41.7%
% Relative increase in FAA: Thr (soy protein; 6.0% FLAVOURZYME +67 kDa AP): 2.4%
% Relative increase in FAA: Tyr (soy protein; 6.0% FLAVOURZYME +67 kDa AP): 8.5%
% Relative increase in FAA: Val (soy protein; 6.0% FLAVOURZYME +67 kDa AP): 6.3%
% Relative increase in FAA: total (soy protein; 6.0% FLAVOURZYME +67 kDa AP): 10.3%
specific activity [1]: 6.45 GAPU/mg
Relative activity (%) ([2]; pH 5.25, Ala-pNA): 24.9%
Relative activity (%) ([2]; pH 6.14, Ala-pNA): 56.4%
Relative activity (%) ([2]; pH 6.68, Ala-pNA): 78.4%
Relative activity (%) ([2]; pH 7.09, Ala-pNA): 99.4%
Relative activity (%) ([2]; pH 7.30, Ala-pNA): 100%
Relative activity (%) ([2]; pH 7.57, Ala-pNA): 92.8%
Relative activity (%) ([2]; pH 8.0, Ala-pNA): 61%
Relative activity (%) ([2]; pH 8.49, Ala-pNA): 24.2%
hydrolysis of dipeptide substrates [3]: hydrolysed Gly-Phe-pNA more quickly than Ala-Ala-pNA
isoelectric point [4]: ~8.4

From patent publication US6673571B2, “Polypeptides having aminopeptidase activity and nucleic acids encoding same” (Novozymes Biotech, Inc., priority 1997, dated 2004)
